These results are taken from US8809010B2, “Method for prophylactic treatment of alzheimer's disease using inhibitors of glutaminyl cyclase and glutamate cyclases” (Probiodrug AG, priority 2003, dated 2014).

Substrate in this series: NC(=O)CCC(N)C(=O)Nc1ccc2ccccc2c1
The experiment in a line: Continuous spectrophotometric QC assay (glutamate dehydrogenase coupled), substrate kinetics.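 Note: initial rates read on a microplate reader at 30 °C, with enzyme activity quantified against an ammonia calibration curve under the same assay conditions.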 It counts as biochemical. Particulars: other: Human QC.

The mark [1] stands for this setting: 0.05M Tris-HCl, pH 8.0, 0.5 M KCl, pH 8.0.

A word on the Km: it is the substrate concentration at which the rate is half of its maximum. Usually kcat stands for the number of substrate molecules converted per active site and unit of time at saturation. By kcat/Km is commonly meant the turnover number divided by the Michaelis constant.

Method: The initial velocities were evaluated and the enzymatic activity was determined from a standard curve of ammonia under assay conditions. All samples were measured at 30° C., using either the [sequence]luor Plus or the Sunrise (both from TECAN) reader for microplates. Kinetic data was evaluated using GraFit software.

B1: human QC (Homo sapiens) (protein)
chain: VSPSASAWPEEKNYHQPAILNSSALRQIAEGTSISEMWQNDLQPLLIERYPGSPGSYAARQHIMQRIQRLQADWVLEIDTFLSQTPYGYRSFSNIISTLNPTAKRHLVLACHYDSKYFSHWNNRVFVGATDSAVPCAMMLELARALDKKLLSLKTVSDSKPDLSLQLIFFDGEEAFLHWSPQDSLYGSRHLAAKMASTPHPPGARGTSQLHGMDLLVLLDLIGAPNPTFPNFFPNSARWFERLQAIEHELHELGLLKDHSLEGRYFQNYSYGGVIQDDHIPFLRRGVPVLHLIPSPFPEVWHTMDDNEENLDESTIDNLNKILQVFVLEYLHL
notes: The cDNA of the mature QC starting with codon 38 was fused in frame with the plasmid encoded 6× histidine tag; 6xHis; made in house; host or cells: Pichia pastoris X33 (pPICZαB, secreted); also E. coli M15 (pQE-31)
Regarding B1, where the note is “0.05M Tris-HCl, pH 8.0”, the Km turned out to be 76 ± 4 µM, the kcat is 21.7 ± 0.5 s⁻¹ and the kcat/Km was 285000 ± 8000 M⁻¹ s⁻¹. Moreover, under setting [1], the Km came to 63 ± 3 µM, the kcat was determined as 20.0 ± 0.4 s⁻¹ and the kcat/Km is 318000 ± 9000 M⁻¹ s⁻¹. Under “pH 8.8”, the Michaelis-Menten constant (Km) was found to be 70 ± 3 µM and the kcat stood at 20.6 ± 0.5 s⁻¹.
